Consider 2 molecules from US20240058466A1 (TAE LIFE SCIENCES, published 2024).

In the assay the target is T1, recombinant human FcRn (Sino Biological) (human, UniProt P55899 24-297; P61769 21-119).
T1 construct: the two chains are those of natural FcRn
As to the kind of experiment: ELISA at pH 6.0: plate coated with recombinant human FcRn, antibody titrated, goat anti-human Fc-HRP, OD650. A general note: In an ELISA, binding on a coated surface is turned into a signal by an enzyme label.

T1 sequence (P55899 24-297 limits assumed, chain 1 of 2): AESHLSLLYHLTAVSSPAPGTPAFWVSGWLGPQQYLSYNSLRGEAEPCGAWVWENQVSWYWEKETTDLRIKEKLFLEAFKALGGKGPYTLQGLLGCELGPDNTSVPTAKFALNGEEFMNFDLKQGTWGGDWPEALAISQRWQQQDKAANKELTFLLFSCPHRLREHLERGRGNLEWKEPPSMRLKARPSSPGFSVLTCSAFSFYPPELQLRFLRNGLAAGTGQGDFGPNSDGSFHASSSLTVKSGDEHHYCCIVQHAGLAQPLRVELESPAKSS
T1 sequence (P61769 21-119 limits assumed, chain 2 of 2): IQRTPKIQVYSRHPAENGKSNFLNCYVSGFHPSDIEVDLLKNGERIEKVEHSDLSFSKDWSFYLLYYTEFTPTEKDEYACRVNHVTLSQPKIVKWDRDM
Procedure: FcRn binding was evaluated using an enzyme linked immunoassay (ELISA). Briefly, 96-well ELISA plates were coated with of recombinant human FcRn (Sino Biological, Inc, Beijing, China) in 1× PBS (pH 6.0) coating buffer. Subsequently, the plates were washed and blocked with ELISA blocking buffer. […] After washing to remove unbound antibodies, the bound antibodies were detected with horseradish peroxidase (HRP) conjugated goat anti-human Fc-specific polyclonal antibody (Jackson ImmunoResearch, West Grove, PA). After washing to remove unbound detection antibody, a slow kinetic substrate solution of tetramethylbenzidine (TMB) was added to the wells where color develops in proportion to the amount of testing samples. The optical density (OD) of the color was measured at 650 nm and was used for determination of the amount of testing samples bound to FcRn. Detectable binding of antibodies over the range of test concentrations was analyzed using the one-site binding, nonlinear regression analysis with GraphPad Prism.

B1: Anti-EGFR Mab No. 3, L234A, L235A, L328C (antibody, human IgG1, L234A L235A)
heavy: QVQLQQSGAEVKKPGSSVKVSCKASGYTFTNYYIYWVRQAPGQGLEWIGGINPTSGGSNFNEKFKTRVTITADESSTTAYMELSSLRSEDTAFYFCTRQGLWFDSDGRGFDFWGQGTTVTVSSASTKGPSVFPLAPSSKSTSGGTAALGCLVKDYFPEPVTVSWNSGALTSGVHTFPAVLQSSGLYSLSSVVTVPSSSLGTQTYICNVNHKPSNTKVDKRVEPKSCDKTHTCPPCPAPEAAGGPSVFLFPPKPKDTLMISRTPEVTCVVVDVSHEDPEVKFNWYVDGVEVHNAKTKPREEQYNSTYRVVSVLTVLHQDWLNGKEYKCKVSNKACPAPIEKTISKAKGQPREPQVYTLPPSREEMTKNQVSLTCLVKGFYPSDIAVEWESNGQPENNYKTTPPVLDSDGSFFLYSKLTVDKSRWQQGNVFSCSVMHEALHNHYTQKSLSLSPGK
light: DIQMTQSPSSLSASVGDRVTITCRSSQNIVHSNGNTYLDWYQQTPGKAPKLLIYKVSNRFSGVPSRFSGSGSGTDFTFTISSLQPEDIATYYCFQYSHVPWTFGQGTKLQITREVAAPSVFIFPPSDEQLKSGTASVVCLLNNFYPREAKVQWKVDNALQSGNSQESVTEQDSKDSTYSLSSTLTLSKADYEKHKVYACEVTHQGLSSPVTKSFNRGEC
notes: Fc variant; also called Anti-EGFR Ab No. 3 L234A, L235A, L328C; triple mutant
With B1, the binding result is listed as “binds”.

B2: Anti-EGFR Mab No. 3, L328C (antibody, human IgG1)
heavy: not shown
light: B1 light
notes: Fc variant; also called Anti-EGFR Ab No. 3 L328C; single mutant
Regarding B2, the binding result was “binds”.
